Measurements: patent US20240368242A1 (SHATTUCK LABS, published 2024)

T1: recombinant human OX40-His protein (human, UniProt P43489 29-216)
T1 construct: also called polyhistidine-tagged recombinant human OX40; hOX40; not shown: polyhistidine tag
T1 sequence (looked up): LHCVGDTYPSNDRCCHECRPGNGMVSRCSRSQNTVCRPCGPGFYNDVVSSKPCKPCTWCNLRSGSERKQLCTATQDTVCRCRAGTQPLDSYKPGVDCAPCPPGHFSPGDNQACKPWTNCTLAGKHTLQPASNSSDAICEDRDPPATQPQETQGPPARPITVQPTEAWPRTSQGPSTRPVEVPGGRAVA

T2: OX40 receptor used in the functional ELISA of Example 12 (human, UniProt P43489 29-216)
T2 construct: also called hOX40
T2 sequence (looked up): T1 sequence (looked up)

T3: human OX40 expressed on Jurkat cells (Jurkat/hOX40) (human, UniProt P43489 29-277)
T3 construct: whole, on cells
T3 sequence (looked up): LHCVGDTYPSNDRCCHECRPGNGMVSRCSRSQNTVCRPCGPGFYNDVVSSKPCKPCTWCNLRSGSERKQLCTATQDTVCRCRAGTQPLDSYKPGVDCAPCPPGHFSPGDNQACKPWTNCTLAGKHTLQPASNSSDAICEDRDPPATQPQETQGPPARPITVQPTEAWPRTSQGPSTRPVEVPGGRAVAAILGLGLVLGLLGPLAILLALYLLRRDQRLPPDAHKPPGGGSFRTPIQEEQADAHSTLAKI

T4: TNFRSF4
T4 construct: also called TNF Receptor Superfamily Member 4; canonical isoform
T4 chain: T3 sequence (looked up)

B1: recombinant human OX40L-Fc (Fc fusion, UniProt P23510 51-183, looked up)
chain: QVSHRYPRIQSIKVQFTEYKKEKGFILTSQKEDEIMKVQNNSVIINCDGFYLISLKGYFSQEVNISLHYQKDEEPLFQLKKVRSVNSLMVASLTYKDKVYLNVTTDNTSLDDFHVNGGELILIHQNPGEFCVL
notes: Positive control in SPR; not shown: Fc not described
B2: murine CD172a(SIRPα)-Fc-CD40L chimeric protein (Fc fusion)
chain 1: KELKVTQPEKSVSVAAGDSTVLNCTLTSLLPVGPIRWYRGVGPSRLLIYSFAGEYVPRIRNVSDTTKRNNMDFSIRISNVTPADAGIYYCVKFQKGSSEPDTEIQSGGGTEVYVLAKPSPPEVSGPADRGIPDQKVNFTCKSHGFSPRNITLKWFKDGQELHPLETTVNPSGKNVSYNISSTVRVVLNSMDVNSKVICEVAHITLDRSPLRGIANLSNFIRVSPTVKVTQQSPTSMNQVNLTCRAERFYPEDLQLIWLENGNVSRNDTPKNLTKNTDGTYNYTSLFLVNSSAHREDVVFTCQVKHDQQPAITRNHTVLGFAHSSDQGSMQTFPDNNATHNWN
chain 2: HRRLDKVEEEVNLHEDFVFIKKLKRCNKGEGSLSLLNCEEMRRQFEDLVKDITLNKEEKKENSFEMQRGDEDPQIAAHVVSEANSNAASVLQWAKKGYYTMKSNLVMLENGKQLTVKREGLYYVYTQVTFCSNREPSSQRPFIVGLWLKPSSGSERILLKAANTHSSSQLCEQQSVHLGGVFELQAGASVFVNVTEASQVIHRVGFSSFGLLKL
B3: recombinant murine CD40 protein (receptor, UniProt P27512 24-193, looked up)
chain: VTCSDKQYLHDGQCCDLCQPGSRLTSHCTALEKTQCHPCDSGEFSAQWNREIRCHQHRHCEPNQGLRVKKEGTAESDTVCTCKEGQHCTSKDCEACAQHTPCIPGFGVMEMATETTDTVCHPCPVGFFSNQSSLFEKCYPWTSCEDKNLEVLQKGTSQTNVICGLKSRMR
notes: also called mCD40
B4: murine PD-1-Fc-OX40L chimeric protein (Fc fusion)
chain 1: LEVPNGPWRSLTFYPAWLTVSEGANATFTCSLSNWSEDLMLNWNRLSPSNQTEKQAAFCNGLSQPVQDARFQIIQLPNRHDFHMNILDTRRNDSGIYLCGAISLHPKAKIEESPGAELVVTERILETSTRYPSPSPKPEGRFQGM
chain 2: SSSPAKDPPIQRLRGAVTRCEDGQLFISSYKNEYQTMEVQNNSVVIKCDGLYIIYLKGSFFQEVKIDLHFREDHNPISIPMLNDGRRIVFTVVASLAFKDKVYLTVNAPDTLCEHLQINDGELIVVQLTPGYCAPEGSYHSTVNQVPL
B5: human PD-1-Fc-OX40L chimeric protein treated with the deglycosylase PNGase F (Fc fusion)
chain: LDSPDRPWNPPTFSPALLVVTEGDNATFTCSFSNTSESFVLNWYRMSPSNQTDKLAAFPEDRSQPGQDCRFRVTQLPNGRDFHMSVVRARRNDSGTYLCGAISLAPKAQIKESLRAELRVTERRAEVPTAHPSPSPRPAGQFQSKYGPPCPSCPAPEFLGGPSVFLFPPKPKDTLMISRTPEVTCVVVDVSQEDPEVQFNWYVDGVEVHNAKTKPREEQFNSTYRVVSVLTVLHQDWLSGKEYKCKVSSKGLPSSIEKTISNATGQPREPQVYTLPPSQEEMTKNQVSLTCLVKGFYPSDIAVEWESNGQPENNYKTTPPVLDSDGSFFLYSRLTVDKSSWQEGNVFSCSVMHEALHNHYTQKSLSLSLGKIEGRMDQVSHRYPRIQSIKVQFTEYKKEKGFILTSQKEDEIMKVQNNSVIINCDGFYLISLKGYFSQEVNISLHYQKDEEPLFQLKKVRSVNSLMVASLTYKDKVYLNVTTDNTSLDDFHVNGGELILIHQNPGEFCVL
modifications: N-glycans removed with PNGase F
notes: also called deglycosylated hPD-1-Fc-OX40L
B6: human PD-1-Fc-OX40L chimeric protein (Fc fusion)
chain: B5 chain
notes: Glycosylated; also called hPD-1-Fc-OX40L

What was measured:
[1] = target: T1, recombinant human OX40-His protein; test: SPR, His-tagged target on ProteOn HTG tris-NTA chip, positive control
From the text: Specifically, polyhistidine-tagged versions of recombinant human PD-L1, PD-L2, or OX40 was bound to ProteOn HTG tris-NTA chips (BIORAD).

[2] = target: T2, OX40 receptor used in the functional …; test: ELISA, plate-bound OX40, detection with αOX40L and HRP detection antibody; fold dilution series
[3] = target: T5, murine CD40 expressed on CHOK1 cells (CHOK1/mCD40) (murine, UniProt P27512 20-289); test: flow cytometry on CHOK1/mCD40 cells
T5 construct: whole, on cells

[4] = target: B2; test: SPR, binding to mCD40
[5] = target: T6, FcRn-His (Example 11); test: SPR (BioRad ProteOn XPR 360), His-tagged target chip-bound
T6 construct: A beta-2-microglobulin chain is not mentioned

[6] = target: plate-bound recombinant human PD-L1 protein (human, UniProt Q9NZQ7 19-238, limits assumed); test: functional ELISA on human PD-L1; x axis is dilution (1 to 16), concentration not given
[7] = target: T2, OX40 receptor used in the functional …; test: functional ELISA on human OX40; x axis is dilution (1 to 16), concentration not given
[8] = target: T3, human OX40 expressed on Jurkat cells …; test: flow cytometry on Jurkat-hOX40 cells; Jurkat cells without hOX40 as control
[9] = target: Galectin-1 (human, UniProt P09382 2-135, limits assumed); test: microarray containing about 6,000 human membrane proteins
[10] = target: T4, TNFRSF4; test: as above

T6 sequence (Q61559 22-297, chain 1 of 2): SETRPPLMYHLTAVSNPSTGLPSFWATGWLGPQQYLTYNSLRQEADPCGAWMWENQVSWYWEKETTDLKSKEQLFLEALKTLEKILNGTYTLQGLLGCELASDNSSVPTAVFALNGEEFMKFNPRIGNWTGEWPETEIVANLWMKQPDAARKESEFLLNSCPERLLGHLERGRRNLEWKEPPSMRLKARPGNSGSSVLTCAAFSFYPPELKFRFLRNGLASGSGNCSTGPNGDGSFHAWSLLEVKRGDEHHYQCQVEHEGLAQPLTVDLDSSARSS
T6 sequence (P01887 21-119, chain 2 of 2, further chain): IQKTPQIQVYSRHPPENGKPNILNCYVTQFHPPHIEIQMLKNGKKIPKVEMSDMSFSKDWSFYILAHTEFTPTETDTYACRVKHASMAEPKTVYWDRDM
Galectin-1, sequence (P09382 2-135 limits assumed): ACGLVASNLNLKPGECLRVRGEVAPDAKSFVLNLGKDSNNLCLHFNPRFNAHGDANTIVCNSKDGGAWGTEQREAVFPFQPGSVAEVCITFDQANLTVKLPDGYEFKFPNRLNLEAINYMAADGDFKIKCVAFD
T5 sequence (P27512 20-289): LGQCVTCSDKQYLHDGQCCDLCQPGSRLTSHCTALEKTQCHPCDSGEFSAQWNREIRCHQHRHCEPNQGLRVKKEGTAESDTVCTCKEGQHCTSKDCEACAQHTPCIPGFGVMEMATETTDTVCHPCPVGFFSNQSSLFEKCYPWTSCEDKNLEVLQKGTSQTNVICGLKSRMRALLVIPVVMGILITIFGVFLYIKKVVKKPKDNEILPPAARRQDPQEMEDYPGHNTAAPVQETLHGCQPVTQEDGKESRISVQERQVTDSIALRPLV
plate-bound recombinant human PD-L1 protein, sequence (Q9NZQ7 19-238 limits assumed): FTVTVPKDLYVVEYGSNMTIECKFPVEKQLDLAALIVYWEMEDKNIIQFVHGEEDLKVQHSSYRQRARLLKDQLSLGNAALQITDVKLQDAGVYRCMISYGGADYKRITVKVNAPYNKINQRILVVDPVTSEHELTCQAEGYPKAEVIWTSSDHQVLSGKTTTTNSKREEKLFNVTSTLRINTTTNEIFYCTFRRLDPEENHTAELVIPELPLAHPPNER

Binder: B1
binding result [1]: binds
binding result [2]: binds

Binder: B2
EC50 [3]: 20.2 nM

Binder: B3
koff [4]: 5.51e-05 s⁻¹
kon [4]: 72800 M⁻¹ s⁻¹

Binder: B4
Kd [5]: 55.6 nM
koff [5]: 0.00262 s⁻¹
kon [5]: 47200 M⁻¹ s⁻¹

Binder: B5
binding result [6]: binds
binding result [7]: binds
binding result [8]: binds

Binder: B6
binding result [9]: binds
binding result [10]: binds
